Assays:
[1] = target: T1, PGS-1, YRRAAVPPSPSLSRHSSPSQS(p)EDEEE
T1 chain: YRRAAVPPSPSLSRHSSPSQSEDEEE

p9CREB, ILSRRPS(p)YR = target: T2, p9CREB, ILSRRPS(p)YR
T2 chain: ILSRRPSYR

[2] = target: T3, pIRS-1, RREGGMSRPAS(p)VDG
T3 chain: RREGGMSRPASVDG

L803-mts = target: T4, L803-mts (not fully specified)
T4 chain: GKEAPPAPPQSP

Protein	Substrate phosphorylation (% of WTGSK-3β) (% of WTGSK-3β) [1]	Substrate phosphorylation (% of WTGSK-3β) (% of WTGSK-3β) (p9CREB, ILSRRPS(p)YR)	Substrate phosphorylation (% of WTGSK-3β) (% of WTGSK-3β) [2]	in vitro kinase assays using pIRS-1, p9CREB, and pGS-1 substrate in the presence or absence of L803-mts (100 µM) (L803-mts)
GSK-3β F93A mutant (protein) MSGRPRTTSFAESCKPVQQPSAFGSMKVSRDKDGSKVTTVVATPGQGPDRPQEVSYTDTKVIGNGSFGVVYQAKLCDSGELVAIKKVLQDKRAKNRELQIMRKLDHCNIVRLRYFFYSSGEKKDEVYLNLVLDYVPETVYRVARHYSRAKQTLPVIYVKLYMYQLFRSLAYIHSFGICHRDIKPQNLLLDPDTAVLKLCDFGSAKQLVRGEPNVSYICSRYYRAPELIFGATDYTSSIDVWSAGCVLAELLLGQPIFPGDSGVDQLVEIIKVLGTPTREQIREMNPNYTEFKFPQIKAHPWTKDSSGTGHFTSGVRVFRPRTPPEAIALCSRLLEYTPTARLTPLEACAHSFFDELRDPNVKLPNGRDTPALFNFTTQELSSNPPLATILIPPHARIQAAASTPTNATAASDANTGDRGQTNNAASASASNST	13	46	42	–
GSK-3β D90A mutant (protein) MSGRPRTTSFAESCKPVQQPSAFGSMKVSRDKDGSKVTTVVATPGQGPDRPQEVSYTDTKVIGNGSFGVVYQAKLCDSGELVAIKKVLQAKRFKNRELQIMRKLDHCNIVRLRYFFYSSGEKKDEVYLNLVLDYVPETVYRVARHYSRAKQTLPVIYVKLYMYQLFRSLAYIHSFGICHRDIKPQNLLLDPDTAVLKLCDFGSAKQLVRGEPNVSYICSRYYRAPELIFGATDYTSSIDVWSAGCVLAELLLGQPIFPGDSGVDQLVEIIKVLGTPTREQIREMNPNYTEFKFPQIKAHPWTKDSSGTGHFTSGVRVFRPRTPPEAIALCSRLLEYTPTARLTPLEACAHSFFDELRDPNVKLPNGRDTPALFNFTTQELSSNPPLATILIPPHARIQAAASTPTNATAASDANTGDRGQTNNAASASASNST	83	92	88	–
wild-type (WT) GSK-3β (protein) MSGRPRTTSFAESCKPVQQPSAFGSMKVSRDKDGSKVTTVVATPGQGPDRPQEVSYTDTKVIGNGSFGVVYQAKLCDSGELVAIKKVLQDKRFKNRELQIMRKLDHCNIVRLRYFFYSSGEKKDEVYLNLVLDYVPETVYRVARHYSRAKQTLPVIYVKLYMYQLFRSLAYIHSFGICHRDIKPQNLLLDPDTAVLKLCDFGSAKQLVRGEPNVSYICSRYYRAPELIFGATDYTSSIDVWSAGCVLAELLLGQPIFPGDSGVDQLVEIIKVLGTPTREQIREMNPNYTEFKFPQIKAHPWTKDSSGTGHFTSGVRVFRPRTPPEAIALCSRLLEYTPTARLTPLEACAHSFFDELRDPNVKLPNGRDTPALFNFTTQELSSNPPLATILIPPHARIQAAASTPTNATAASDANTGDRGQTNNAASASASNST	–	–	–	L803-mts (SEQ ID NO:5) competes with various substrates
GSK-3β K94A mutant (protein) MSGRPRTTSFAESCKPVQQPSAFGSMKVSRDKDGSKVTTVVATPGQGPDRPQEVSYTDTKVIGNGSFGVVYQAKLCDSGELVAIKKVLQDKRFANRELQIMRKLDHCNIVRLRYFFYSSGEKKDEVYLNLVLDYVPETVYRVARHYSRAKQTLPVIYVKLYMYQLFRSLAYIHSFGICHRDIKPQNLLLDPDTAVLKLCDFGSAKQLVRGEPNVSYICSRYYRAPELIFGATDYTSSIDVWSAGCVLAELLLGQPIFPGDSGVDQLVEIIKVLGTPTREQIREMNPNYTEFKFPQIKAHPWTKDSSGTGHFTSGVRVFRPRTPPEAIALCSRLLEYTPTARLTPLEACAHSFFDELRDPNVKLPNGRDTPALFNFTTQELSSNPPLATILIPPHARIQAAASTPTNATAASDANTGDRGQTNNAASASASNST	19	71	52	–
GSK-3β K91A mutant (protein) MSGRPRTTSFAESCKPVQQPSAFGSMKVSRDKDGSKVTTVVATPGQGPDRPQEVSYTDTKVIGNGSFGVVYQAKLCDSGELVAIKKVLQDARFKNRELQIMRKLDHCNIVRLRYFFYSSGEKKDEVYLNLVLDYVPETVYRVARHYSRAKQTLPVIYVKLYMYQLFRSLAYIHSFGICHRDIKPQNLLLDPDTAVLKLCDFGSAKQLVRGEPNVSYICSRYYRAPELIFGATDYTSSIDVWSAGCVLAELLLGQPIFPGDSGVDQLVEIIKVLGTPTREQIREMNPNYTEFKFPQIKAHPWTKDSSGTGHFTSGVRVFRPRTPPEAIALCSRLLEYTPTARLTPLEACAHSFFDELRDPNVKLPNGRDTPALFNFTTQELSSNPPLATILIPPHARIQAAASTPTNATAASDANTGDRGQTNNAASASASNST	119	161	140	–
GSK-3β R92A mutant (protein) MSGRPRTTSFAESCKPVQQPSAFGSMKVSRDKDGSKVTTVVATPGQGPDRPQEVSYTDTKVIGNGSFGVVYQAKLCDSGELVAIKKVLQDKAFKNRELQIMRKLDHCNIVRLRYFFYSSGEKKDEVYLNLVLDYVPETVYRVARHYSRAKQTLPVIYVKLYMYQLFRSLAYIHSFGICHRDIKPQNLLLDPDTAVLKLCDFGSAKQLVRGEPNVSYICSRYYRAPELIFGATDYTSSIDVWSAGCVLAELLLGQPIFPGDSGVDQLVEIIKVLGTPTREQIREMNPNYTEFKFPQIKAHPWTKDSSGTGHFTSGVRVFRPRTPPEAIALCSRLLEYTPTARLTPLEACAHSFFDELRDPNVKLPNGRDTPALFNFTTQELSSNPPLATILIPPHARIQAAASTPTNATAASDANTGDRGQTNNAASASASNST	41	49	60	–
